# B1: Azoarcus group I ribozyme (parent)
# chain: GUGCCUUGCGCCGGGAAACCACGCAAGGGAUGGUGUCAAAUUCGGCGAAACCUAAGCGCCCGCCCGGGCGUAUGGCAACGCCGAGCCAAGCUUCGGCGCCUGCGCCGAUGAAGGUGUAGAGACUAGACGGCACCCACCUAAGGCAAACGCUAUGGUGAAGGCAUAGUCCAGGGAGUGGCGAAAGUCACACAAACCGG
# Variants of: B1
# Experiment: reverse-splicing fitness (ratio to wild type); higher = more active; in vitro selection; Mg2+ level not given
# Summary of the method: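 An in vitro group I ribozyme library with randomized positions was T7-transcribed and gel-purified. In triplicate, 10 pmol RNA in EPPS pH 7.5 was reacted with 50 pmoles of a 30-nt RNA substrate for 1 h at 37 °C across several added MgCl2 levels (1–48 mM), then stopped with EDTA. Products were reverse transcribed from a substrate-complementary primer, PCR-amplified and sequenced (HiSeq 4000). Fitness is a variant's read proportion after selection over that before, normalised to wild type.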
row,Variant,reverse-splicing fitness
1,C82U A120U C150A C169U U176A,0.00411
2,C82U A120G C169A U176A,0.0194
3,C82U A120G C169A U176G,0.00354
4,C82U A120G C169A U176C,0.0213
5,C82U A120U C150U C169G U176A,0.0036
6,C82U A120U C150U C169G U176C,0.00284
7,C82U A120U C150U C169G U176G,0.00155
8,C82U A120U A145U C150A C169G U176A,0.00218
9,C82U A120U A145U C150A C169G U176C,0.00274
10,C82U A120U A145U C150A C169G U176G,0.00147
11,C82U A120U A145U C150G C169A U176A,0.00252
12,C82U A120U A145U C150G C169A U176C,0.00203
13,C82U A120U A145U C150G C169A U176G,0.0021
14,C82U A120G C150A C169U U176C,0.0174
15,C82U A120G C150A C169U U176A,0.0211
16,C82U A120G C150A C169U U176G,0.00606
17,C82U A120G C150A C169A,0.0118
18,C82U A120G C150A C169G,0.0102
19,C82U A120G C150A C169U,0.00872
20,C82U A120U A145C C169A U176C,0.0016
21,C82U A120U A145C C169A U176A,0.00163

row,Variant,reverse-splicing fitness
1,C82U A120U A145C C169A U176G,0.00159
2,C82U A120U A145C C150G C169A U176A,0.00201
3,C82U A120U A145C C150G C169A U176G,0.00188
4,C82U A120U A145C C150G C169A U176C,0.00196
5,C82U A120U A145C,0.153
6,C82U A120U A145U,0.181
7,C82U A120U A145G,0.167
8,C82U A120U A145G C150G C169A U176G,0.00459
9,C82U A120U A145G C150G C169A U176A,0.0107
10,C82U A120U A145G C150G C169A U176C,0.00568
11,C82U A120U A145C C150A C169G U176C,0.00196
12,C82U A120U A145C C150A C169G U176A,0.00223
13,C82U A120U A145C C150A C169G U176G,0.00161
14,C82U A120U A145U C169U,0.00594
15,C82U A120U A145U C169G,0.00533
16,C82U A120U A145U C169A,0.00208
17,C82U A120G U176G,0.00399
18,C82U A120G U176A,0.0132
19,C82U A120G U176C,0.0175
20,C82U A120U C150U C169U U176C,0.0038
21,C82U A120U C150U C169U U176A,0.00407

row,Variant,reverse-splicing fitness
1,C82U A120U A145C C150G,0.0193
2,C82U A120U A145C C150A,0.00884
3,C82U A120U A145C C150U,0.0391
4,C82U A120U A145G C150A C169G U176C,0.00372
5,C82U A120U A145G C150A C169G U176A,0.00525
6,C82U A120U A145G C150A C169G U176G,0.00193
7,C82U A120G C150G C169G U176A,0.00641
8,C82U A120G C150G C169G U176G,0.00357
9,C82U A120G C150G C169G U176C,0.0046
10,C82U A120U A145G U176C,0.076
11,C82U A120U A145G U176G,0.0114
12,C82U A120U A145G U176A,0.0429
13,C82U A120U C150A C169A U176G,0.00199
14,C82U A120U C150A C169A U176C,0.0026
15,C82U A120U C150A C169A U176A,0.00373
16,C82U A120U A145G C150U C169U,0.00625
17,C82U A120U A145G C150U C169G,0.00546
18,C82U A120U A145G C150U C169A,0.00495
19,C82U A120U A145G C150A U176C,0.0141
20,C82U A120U A145G C150A U176G,0.00354
21,C82U A120U A145G C150A U176A,0.0113

row,Variant,reverse-splicing fitness
1,C82U A120U A145C C150A U176C,0.00532
2,C82U A120U A145C C150A U176A,0.00377
3,C82U A120U A145C C150A U176G,0.00282
4,C82U A120G C169G U176G,0.00332
5,C82U A120G C169G U176A,0.0215
6,C82U A120G C169G U176C,0.0246
7,C82U A120G A145U C169A U176G,0.00294
8,C82U A120G A145U C169A U176A,0.00994
9,C82U A120G A145U C169A U176C,0.0105
10,C82U A120U A145G C150U C169A U176A,0.00476
11,C82U A120U A145G C150U C169A U176G,0.0022
12,C82U A120U A145G C150U C169A U176C,0.00278
13,C82U A120U A145G C169A U176G,0.00152
14,C82U A120U A145G C169A U176A,0.0025
15,C82U A120U A145G C169A U176C,0.00239
16,C82U A120U A145U C169A U176G,0.00174
17,C82U A120U A145U C169A U176C,0.00166
18,C82U A120U A145U C169A U176A,0.00185
19,C82U A120U A145G C169G,0.00532
20,C82U A120U A145G C169A,0.00259
21,C82U A120U A145G C169U,0.00624

# — the RNAGym collection of RNA variant scans (doi:10.1093/molbev/msab373)
